Data reported in patent US20230287454.

How the values were obtained:
Assay in all cases: cell_activity
[1] = target: CD38 TALEN Left (synthetic construct) (UniProt Q56830); details: CD38-negative T cells, paired with CD38 right, simultaneous electroporation
[2] = target: CD38 TALEN Right (synthetic construct) (UniProt Q56830); details: CD38-negative T cells, paired with CD38 left, simultaneous electroporation
[3] = system: CD52 TALEN Left (synthetic construct); details: CD52-negative T cells, paired with CD52 right, simultaneous electroporation
[4] = target: CD52 TALEN Right (synthetic construct) (UniProt Q56830); details: CD52-negative T cells, paired with CD52 left, simultaneous electroporation
[5] = target: TRAC TALEN Left (synthetic construct) (UniProt Q56830); details: TCR-negative T cells, paired with TRAC right, simultaneous electroporation with CD38 and CD52 TALEN
[6] = target: TRAC TALEN Right (synthetic construct) (UniProt Q56830); details: TCR-negative T cells, paired with TRAC left, simultaneous electroporation

CD38 left half-site
activity [1]: 66.1%

CD38 right half-site
activity [2]: 66.1%

CD52 left half-site
activity [3]: 57%

CD52 right half-site
activity [4]: 57%

TRAC left half-site
activity [5]: 67.8%

TRAC right half-site
activity [6]: 67.8%
